In test [1] the target is purified recombinant A3G-His6 (human APOBEC3G with C-terminal Myc-His6 tag, expressed in 293T cells) (human) (UniProt Q9HC16). The test can be described thus: cell-based or functional assay.
Test [2] deals with virion-associated A3G (endogenous A3G of H9 cells packaged in HIV-1 particles) (human) (UniProt Q9HC16). The test can be described thus: cell-based or functional assay.

A3G deaminase activity, inhibition of A3G deaminase activity and specific activity of virion-associated A3G deaminase (wt vs Δvif particles, normalized to A3G protein content) data for six substances are collected here from patent US20150111836A1, “CELLULAR APOBEC3 PROTEINS AND MODULATORS THEREOF FOR REGULATING DNA REPAIR PROCESSES AND TREATING PROLIFERATIVE DISEASES” (priority 2012, published 2015).

Chain of purified recombinant A3G-His6 (human APOBEC3G with C-terminal Myc-His6 tag, expressed in 293T cells) (human) (Q9HC16 whole entry): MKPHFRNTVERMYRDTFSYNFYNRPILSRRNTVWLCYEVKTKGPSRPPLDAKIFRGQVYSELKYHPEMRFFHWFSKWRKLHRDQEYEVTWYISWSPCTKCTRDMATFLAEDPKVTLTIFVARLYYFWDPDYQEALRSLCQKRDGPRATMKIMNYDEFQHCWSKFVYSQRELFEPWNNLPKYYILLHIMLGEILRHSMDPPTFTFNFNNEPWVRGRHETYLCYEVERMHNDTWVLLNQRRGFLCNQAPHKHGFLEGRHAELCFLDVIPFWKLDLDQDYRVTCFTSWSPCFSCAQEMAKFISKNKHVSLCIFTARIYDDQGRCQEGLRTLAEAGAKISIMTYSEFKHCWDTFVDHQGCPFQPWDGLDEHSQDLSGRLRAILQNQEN

Consider BSA (from UniProt P02769 25-607), for which the A3G deaminase activity in test [1] amounted to 10 µM.

Vif9-23 peptide: the inhibition of A3G deaminase activity in test [1] was 1 µM.

Regarding Vif37-51 peptide, the inhibition of A3G deaminase activity in test [1] stood at 1 µM.

Consider Vif101-115 peptide, for which, in test [1], the inhibition of A3G deaminase activity stood at 1 µM.

Consider Vif113-127 peptide, for which the inhibition of A3G deaminase activity in test [1] came out at 1 µM.

Substance “Vif molecules associated with HIV-1 particles (wt HIV-1 HXB2 virions) (from UniProt P05900 1-192)” yielded a specific activity of virion-associated A3G deaminase (wt vs Δvif particles, normalized to A3G protein content) in test [2] of 36.5%.
